Measured values as given in US20170360931A1.

Tests used:
Test in all cases: cell-based or functional assay
[1] = target: HA of wild type A/Shanghai/1/2013 (H7N9) virus (influenza A virus A/Shanghai/1/2013 (H7N9))
[2] = target: HA of A/California/04/2009 (H1N1) virus (influenza A virus A/California/04/2009 (H1N1))
[3] = target: all H3N2 and H7 strains (plaque reduction assay)

B1: 042-100809-2F04 (antibody, V domains shown)
VH: EVQLVESGGGLVQPGGSLRLSCVASGFTFSTPWMTWIRQAPGKGLEWVAHIKQDGSETYYVDSVKGRFTISRDNAKNSLYLQMNSLKAEDTALYYCARMTRESSENYWGQGTLVTVSS
VL: DVVMTQSPLSLPVTLGQPASISCRSSQSLVYSDGDTFLEWFQQRPGQSPRRLIYKVSNRDSGVPDRFSGSGSGTDFTLKISRVEAEDVGLYYCMQHTHWPHTFGQGTKVEIK
[1]
  PRNT50 (plaque reduction assay): 27 µg/mL

B2: S6-B01 (antibody, V domains shown)
VH: QVQLVQSGAEVKKPGASVKVSCKASGYTFNSYGISWVRQAPGQGLEWMGWISAYTGDTKFAQNVQGRVTMTIDTSTSTAYMELRSLRSDDTAVYYCARHYLQGVVVVDPYSHAMDVWGQGTTVTVSS
VL: EIVLTQSPGTLSFFPGERATLSCRASQTINSRFLAWYQQKPGQAPRLLIYGASSRATGIPDRFSGRGSGTDFTLAISRLEPEDFAVYYCQLYGSSRTTFGQGTKVEIK
[2]
  PRNT50 (plaque reduction assay): > 120 µg/mL
[3]
  PRNT50 (plaque reduction assay): 3 to 6 µg/mL
